Laboratory results from article PMC11033290.
Several values for one entry are separate records, joined by “and”; a condition that tells them apart may be missing. Identical values can stand only once.

Biological target: Recombinant M. tuberculosis MDP1 (Mycobacterial DNA-binding protein 1) produced in Mycolicibacterium (Mycobacterium tuberculosis) (UniProt P9WMK7)
Assay: cross-linking; glutaraldehyde 0.2%, room temperature, 30 min; 4 µM or 8 µM protein in 150-1500 mM NaCl; SDS-PAGE on a 4-15% gradient gel

## Recombinant M. tuberculosis MDP1 (Mycobacterial DNA-binding protein 1) produced in Mycolicibacterium (from UniProt P9WMK7 3-216) (natural protein)
  stoichiometry N: 2 and 3
